Measured values from FireProtDB (doi:10.1006/jmbi.1999.3099).

Settings: Mus musculus, pH 7.5, Thermal, Potassium phosphate 50 mM, KCl 50 mM, reversible: yes, structure 1MBG

Transcriptional activator Myb V103I, P06876, sequence (P06876 whole entry V103I): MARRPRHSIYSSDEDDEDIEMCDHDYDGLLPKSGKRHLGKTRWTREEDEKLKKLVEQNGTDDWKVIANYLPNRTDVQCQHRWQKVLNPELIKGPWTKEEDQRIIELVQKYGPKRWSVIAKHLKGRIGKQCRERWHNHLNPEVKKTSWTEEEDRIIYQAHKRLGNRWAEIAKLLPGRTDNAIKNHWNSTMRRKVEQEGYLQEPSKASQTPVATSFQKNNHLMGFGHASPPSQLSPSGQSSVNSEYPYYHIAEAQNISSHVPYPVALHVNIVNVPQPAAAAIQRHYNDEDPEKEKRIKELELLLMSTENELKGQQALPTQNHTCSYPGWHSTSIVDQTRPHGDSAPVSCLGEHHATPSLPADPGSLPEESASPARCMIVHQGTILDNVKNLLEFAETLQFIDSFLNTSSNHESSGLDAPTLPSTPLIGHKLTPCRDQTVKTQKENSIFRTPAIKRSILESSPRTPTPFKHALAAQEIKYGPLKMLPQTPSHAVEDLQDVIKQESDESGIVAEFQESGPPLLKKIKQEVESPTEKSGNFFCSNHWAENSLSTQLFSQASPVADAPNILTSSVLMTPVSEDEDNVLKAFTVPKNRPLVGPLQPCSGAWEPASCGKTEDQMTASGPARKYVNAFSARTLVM
Transcriptional activator Myb V103L, P06876, sequence (P06876 whole entry V103L): as the sequence (P06876 whole entry V103I) above, with I103L counted along it
Transcriptional activator Myb V103A, P06876, sequence (P06876 whole entry V103A): as the sequence (P06876 whole entry V103I) above, with I103A counted along it

Question: For “Transcriptional activator Myb V103A, P06876”, which Tm (CD) is on record?
Answer: 2.8 °C

Question: And the “change of melting temperature, mutant - wild type (higher = more stable)” value (shortened to “change of melting temperature, mutant”) (CD)?
Answer: -36.8 °C

Question: For “Transcriptional activator Myb V103I, P06876”, which Tm (CD) is on record?
Answer: 46.6 °C

Question: And the “change of melting temperature, mutant” value (CD)?
Answer: 7 °C

Question: And the Tm (DSC)?
Answer: 47.5 °C

Question: And the “unfolding enthalpy (calorimetric)” value (DSC)?
Answer: 32.1 kcal/mol

Question: With “Transcriptional activator Myb V103L, P06876” as the substance, how does the Tm (CD) read?
Answer: 62 °C

Question: What about the “change of melting temperature, mutant” value (CD) of the same substance?
Answer: 22.4 °C

Question: And the Tm (DSC)?
Answer: 62 °C

Question: What about the “unfolding enthalpy (calorimetric)” value (DSC) of the same substance?
Answer: 41.8 kcal/mol
